Test [1] concerns the target soluble form of vesicular stomatitis virus (VSV) glycoprotein G ectodomain (Gth, aa residues 1–422) (vesicular stomatitis virus (Mudd-Summer strain, Indiana serotype)). The test can be described thus: AUC; sedimentation velocity, pH 6.7, Gth at 1.6 mg/ml, 45,000 rpm, 15°C.
The target is the same in test [2]. The experiment in a line: AUC; sedimentation velocity, pH 6.7, Gth at 0.4 mg/ml, 45,000 rpm, 15°C.
The target is the same in test [3]. The test can be described thus: AUC.

On to “soluble form of vesicular stomatitis virus (VSV) glycoprotein G ectodomain (Gth, aa residues 1–422) (domain or fragment)”, for which, in test [1], the fractional concentration of the 10.0 S species at 1.6 mg/ml, pH 6.7 is 40% and the fractional concentration of the 21.0 S species at 1.6 mg/ml, pH 6.7 came out at 24%. Moreover, the fractional concentration of the 21.0 S species at 0.4 mg/ml, pH 6.7 in test [2] stood at 13%. In test [3], this substance returned a fraction of the species of about 320 kDa at pH 6.0 of 30%; a fraction of the species of about 1,600 kDa at pH 6.0 of 70%; a fractional concentration of the 10.0 S species at 0.4 mg/ml, pH 5.7 of 71%; a fractional concentration of the 10.0 S species at 1.6 mg/ml, pH 5.7 of 55%. Further, in test [3], the fractional concentration of the 21.0 S species at 0.4 mg/ml, pH 5.7 amounted to 29% and the fractional concentration of the 21.0 S species at 1.6 mg/ml, pH 5.7 is 45%.

(Values after publication PMC3285605.)
